From paper PMC12386978 (2025) come the findings set out here.

First the molecules themselves.
B1: NLuc-mCRY1 (wild-type) [mouse (printed as mCRY1)] / CLuc-BMAL1 [not stated] (parent complex)
chain 1: MGVNAVHWFRKGLRLHDNPALKECIQGADTIRCVYILDPWFAGSSNVGINRWRFLLQCLEDLDANLRKLNSRLFVIRGQPADVFPRLFKEWNITKLSIEYDSEPFGKERDAAIKKLATEAGVEVIVRISHTLYDLDKIIELNGGQPPLTYKRFQTLVSKMEPLEMPADTITSDVIGKCMTPLSDDHDEKYGVPSLEELGFDTDGLSSAVWPGGETEALTRLERHLERKAWVANFERPRMNANSLLASPTGLSPYLRFGCLSCRLFYFKLTDLYKKVKKNSSPPLSLYGQLLWREFFYTAATNNPRFDKMEGNPICVQIPWDKNPEALAKWAEGRTGFPWIDAIMTQLRQEGWIHHLARHAVACFLTRGDLWISWEEGMKVFEELLLDADWSINAGSWMWLSCSSFFQQFFHCYCPVGFGRRTDPNGDYIRRYLPVLRGFPAKYIYDPWNAPEGIQKVAKCLIGVNYPKPMVNHAEASRLNIERMKQIYQQLSRYRGLGLLASVPSNSNGNGGLMGYAPGENVPSCSSSGNGGLMGYAPGENVPSCSGGNCSQGSGILHYAHGDSQQTHSLKQGRSSAGTGLSSGKRPSQEEDAQSVGPKVQRQSSN
chain 2: not shown

The experiment covers variants of B1. The experiment in a line: split-luciferase complementation assay; HEK293T cells, n = 3; read off a plot.
In the case of chain 1 K151R, the response is about 3900.

As to chain 1 K151Q, the response was about 3200.
